The text below walks through data of patent US20260098102A1 (NATIONAL UNIVERSITY CORPORATION KOBE UNIVERSITY, published 2026).

Assay [1] has as its target T1, SIRPA_V1_IgV (human, UniProt P78324 31-149).
T1 construct: Secreted recombinant protein from FreeStyle 293F cells
Briefly: SPR Biacore T200, antibody captured on anti-human IgG (Fc), SIRPA_V1_IgV as analyte (0.25 to 16 nM), 1:1 model. On the procedure:
The dissociation constants were measured by a capture method comprising capturing each antibody as a ligand to an Anti-Human IgG (Fc) antibody immobilized using Human Antibody Capture Kit (GE Healthcare Bioscience Corp.) and measuring an antigen as an analyte, using Biacore T200 (GE Healthcare Bioscience Corp.). HBS-EP+ (GE Healthcare Bioscience Corp.) was used as a running buffer, and CM5 (GE Healthcare Bioscience Corp.) was used as a sensor chip. Onto the chip, 2 μg/mL of various antibodies were added at 10 μL/min for 30 seconds, then a serially diluted solution (0.25 to 16 nM) of the human SIRPA protein as an antigen was added at a flow rate of 30 μL/min for 120 seconds, and subsequently the dissociation phase for 600 seconds was monitored. As a regenerant, 3 M magnesium chloride (GE Healthcare Bioscience Corp.) was added at a flow rate of 20 μL/min for 30 seconds. For data analysis, a binding rate constant (ka), a dissociation rate constant (kd), and a dissociation constant (KD; KD=kd/ka) were calculated using a 1:1 binding model.

The target in assay [2] is T2, human SIRPB (human, UniProt O00241 30-398).
T2 construct: whole, on cells; FLAG-tagged (pFLAG V5-DEST), on CHO-K1 cells; also called SIRPβ1; signal regulatory protein β1
The experiment in a line: flow cytometry on CHO-K1 cells expressing FLAG-tagged human SIRPB; PE anti-human IgG; MFI standardized to secondary antibody alone. On the procedure:
SIRPβ1 (signal regulatory protein β1: the amino acid sequence thereof is published as RefSeq accession number NP_006056) and SIRPγ (signal regulatory protein γ: the amino acid sequence thereof is published as RefSeq accession number NP_061026) are molecules belonging to the SIRPA family. In the present invention, “SIRPα” may be referred to as “SIRPA,” “SIRPβ1” may be referred to as […] and “SIRPγ” may be referred to as “SIRPG.” CHO-K1 cells were prepared in a 10% FBS-containing Ham's F-12K medium at 3.3×10⁵ cells/mL and cultured overnight at 37° C. under a 5% CO₂ condition. pFLAG V5-DEST-human SIRPβ, pFLAG V5-DEST-human SIRPG, or pFLAG V5-DEST was introduced into the cells using Lipofectamine LTX (Invitrogen), and cells were cultured in a 10% FBS-containing Ham's F-12K medium at 37° C. under a 5% CO₂ condition for 24 hours. The obtained introduced cells were collected and seeded on a 96-well plate. After the culture supernatant was removed, 100 μL per well of various anti-human SIRPA antibodies or various control human IgG was added to each of various gene introduced cells at a final concentration of 0 to 10,000 ng/mL, and the mixture was allowed to stand at 4° C. for 25 minutes. After the mixture was centrifuged, the supernatant was removed, and cells were washed twice with 5% FBS-containing PBS. After the mixture was centrifuged, the supernatant was removed, 50 μL per well of a 1/400 diluted solution of PE Mouse anti-Human IgG antibody (BioLegend) was added, and the mixture was allowed to stand at 4° C. for 25 minutes. After the mixture was centrifuged, the supernatant was removed, and cells were washed twice with 5% FBS-containing PBS.
After the mixture was centrifuged, and the supernatant was removed, cells were suspended in 100 μL per well of 1× BD Stabilizing Fixative (Becton Dickinson), and the cell count was measured by flow cytometry (FACS Canto II: Becton Dickinson). For data analysis, FlowJo (TreeStar) was used. Cells were characterized by detecting forward scattered (FSC) light and side-scattered (SSC) light, and then the mean fluorescence intensity of PE was calculated. Binding of various antibodies to the family molecules was calculated by standardizing the fluorescence intensity using the mean fluorescence intensity of a sample in which the secondary antibody alone was allowed to react.

Assay [3] addresses T3, human SIRPA_V1 protein (human, UniProt P78324 31-504).
T3 construct: Expressed on 293α cells from pcDNA3.2 V5-DEST or pFLAG V5-DEST (FLAG-tagged) vectors; also called human SIRPA Variant 1; hSIRPA V1
The experiment in a line: blocking cell-based ELISA: peroxidase-labeled CD47-Fc (1 µg/mL) on 293α cells expressing SIRPA_V1. As for the experimental part: After the culture supernatant of the human SIRPA_V1 or V2 expression vector-introduced 293 cells prepared in Example 9)-1 was removed, 50 μL per well of various anti-SIRPA antibodies or various control Human IgG diluted with 5% FBS-containing PBS to a final concentration of 0 to 10,000 ng/ml was added to each of pcDNA3.2 V5-DEST-SIRPA_V1 or V2-introduced 293α cells, immediately followed by addition of 50 µL per well of peroxidase-labeled CD47-Fc prepared with 5% FBS-containing PBS at 1 μg/mL, and the mixture was allowed to stand at 4° C. for one hour. Thereafter, the SIRPA-CD47 binding inhibitory activity was evaluated in the same manner as in 1)-6-3.

For assay [4], the target named is T4, human SIRPA_V2 protein (human, UniProt P78324 31-504).
T4 construct: Expressed on 293α cells from pcDNA3.2 V5-DEST or pFLAG V5-DEST (FLAG-tagged) vectors; also called human SIRPA Variant 2; ECD variant (full-length, amino acids 1 to 504)
Briefly: cell-based ELISA on 293α cells expressing FLAG-tagged SIRPA_V2; Abs 490 normalized to FLAG tag. On the procedure:
(§1) The 293α cells [described in Example 1)-6] were prepared in a 10% FBS-containing DMEM medium to 5×10⁵ cells/mL. pFLAG V5-DEST-SIRPA_V1, pFLAG V5-DEST-SIRPA_V2, or pFLAG V5-DEST was introduced into the cells using Lipofectamine LTX (Invitrogen), followed by addition of 100 μL per well to a 96-well plate (Corning Incorporated), and cells were cultured overnight in the 10% FBS-containing DMEM medium at 37° C. under a 5% CO₂ condition. The obtained introduced cells were used for cell-based ELISA in a state that they adhered to each other. After the culture supernatant was removed, 50 μL per well of the cD13 (IgG2 and IgG4pf), cF44 (IgG1, IgG2, IgG4p, and IgG4pf), and cF63 (IgG2 and IgG4pf) antibodies prepared in Examples 3 and 4 were added to each of pFLAG V5-DEST-SIRPA_V1, pFLAG V5-DEST-SIRPA_V2, or pFLAG V5-DEST-introduced cells at final concentrations of 0 to 10,000 ng/mL, and the mixture was allowed to stand at 4° C. for one hour. Further, 50 μL per well of anti-FLAG M2 antibody (SIGMA) diluted with 5% FBS-containing PBS to a final concentration of 10,000 ng/mL was added to a well for detecting expression of each SIRPA construct, and the mixture was allowed to stand at 4° C. for one hour. The cells in the well were washed once with 5% FBS-containing PBS, followed by addition of Peroxidase AffiniPure F(ab′)₂ Fragment Goat Anti-Human IgG, Fcγ Fragment Specific (Jackson ImmunoResearch) diluted 1000-fold with 5% FBS-containing PBS, and the mixture was allowed to stand at 4° C. for one hour. The cells in the well were washed five times with 5% FBS-containing PBS, followed by addition of 100 μL per well of an OPD coloration solution [o-phenylenediamine dihydrochloride (Wako Pure Chemical Industries, Ltd.) and H₂O₂ were dissolved in an OPD solution (0.05 M trisodium citrate, 0.1 M disodium hydrogen phosphate dodecahydrate, pH 4.5) at 0.4 mg/mL and 0.6% (v/v), respectively]. A coloration reaction was performed with stirring occasionally, 100 μL per well of 1 M HCl was added to terminate the coloration reaction, and then absorbance at 490 nm was measured with a plate reader ARVO (PerkinElmer Inc.). Binding of the human chimeric anti-human SIRPA antibodies to each construct was standardized by expression of the FLAG tag.

In assay [5] the target is T3, human SIRPA_V1 protein. Briefly: blocking cell-based ELISA: peroxidase-labeled CD47-Fc (10,000 ng/mL) on 293α cells expressing SIRPA_V1; y axis = CD47-Fc signal in % of no antibody [i]. As for the experimental part:
After the culture supernatant of the human SIRPA and monkey SIRPA expression vector-introduced 293α cells prepared in Examples 5)-1 and 5)-2, respectively, was removed, 50 μL per well of cD13 (IgG2 and IgG4pf), cF44 (four different constant regions IgG1, IgG2, IgG4p, and IgG4pf), and cF63 (IgG2 and IgG4pf) diluted with 5% FBS-containing PBS to final concentrations of 0 to 10,000 ng/mL were added to each of pcDNA3.2 V5-DEST-SIRPA_V1, pcDNA3.2 V5-DEST-monkey SIRPA, and pcDNA3.2 V5-DEST-introduced 293α cells, immediately followed by addition of 50 μL per well of peroxidase-labeled CD47-Fc prepared in 5% FBS-containing PBS at a final concentration of 10,000 ng/ml, and the mixture was allowed to stand at 4° C. for one hour. Thereafter, the SIRPA-CD47 binding inhibitory activity was evaluated in the same manner as in 1)-6-3.

The target of assay [6] is T4, human SIRPA_V2 protein. The experiment in a line: blocking cell-based ELISA: peroxidase-labeled CD47-Fc (10,000 ng/mL) on 293α cells expressing SIRPA_V2; y axis = CD47-Fc signal in % of no antibody [ii].
The target of assay [7] is T3, human SIRPA_V1 protein. Briefly: cell-based ELISA on 293α cells expressing FLAG-tagged SIRPA_V1; Abs 490 normalized to FLAG tag. As for the experimental part: as §1

T4 sequence (P78324 other isoform, or with tags, fused parts or gaps limits assumed): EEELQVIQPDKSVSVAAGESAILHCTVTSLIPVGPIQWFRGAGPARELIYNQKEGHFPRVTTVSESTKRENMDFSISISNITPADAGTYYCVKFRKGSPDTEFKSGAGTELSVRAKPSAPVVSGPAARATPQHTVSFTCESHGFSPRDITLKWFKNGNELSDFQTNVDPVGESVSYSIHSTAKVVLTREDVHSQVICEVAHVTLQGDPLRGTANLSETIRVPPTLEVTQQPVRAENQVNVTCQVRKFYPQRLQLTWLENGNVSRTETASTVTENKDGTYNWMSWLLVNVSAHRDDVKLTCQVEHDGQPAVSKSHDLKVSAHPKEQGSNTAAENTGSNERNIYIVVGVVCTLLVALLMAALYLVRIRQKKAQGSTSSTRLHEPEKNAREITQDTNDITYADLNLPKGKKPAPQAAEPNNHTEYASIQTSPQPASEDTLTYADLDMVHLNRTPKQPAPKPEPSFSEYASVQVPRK
T3 sequence (P78324 31-504 limits assumed): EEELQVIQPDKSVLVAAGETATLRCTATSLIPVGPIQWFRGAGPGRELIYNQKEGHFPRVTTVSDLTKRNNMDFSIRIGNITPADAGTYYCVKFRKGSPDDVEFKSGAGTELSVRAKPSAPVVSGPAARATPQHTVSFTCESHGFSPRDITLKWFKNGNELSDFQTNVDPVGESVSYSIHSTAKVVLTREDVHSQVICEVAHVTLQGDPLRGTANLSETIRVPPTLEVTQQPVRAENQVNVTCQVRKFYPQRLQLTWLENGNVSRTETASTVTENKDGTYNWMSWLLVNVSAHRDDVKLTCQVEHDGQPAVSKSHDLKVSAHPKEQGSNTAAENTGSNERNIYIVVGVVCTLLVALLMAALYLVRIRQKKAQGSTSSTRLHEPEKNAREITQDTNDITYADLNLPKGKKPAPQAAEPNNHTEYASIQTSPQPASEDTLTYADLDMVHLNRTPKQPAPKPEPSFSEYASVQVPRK
T2 sequence (O00241 30-398): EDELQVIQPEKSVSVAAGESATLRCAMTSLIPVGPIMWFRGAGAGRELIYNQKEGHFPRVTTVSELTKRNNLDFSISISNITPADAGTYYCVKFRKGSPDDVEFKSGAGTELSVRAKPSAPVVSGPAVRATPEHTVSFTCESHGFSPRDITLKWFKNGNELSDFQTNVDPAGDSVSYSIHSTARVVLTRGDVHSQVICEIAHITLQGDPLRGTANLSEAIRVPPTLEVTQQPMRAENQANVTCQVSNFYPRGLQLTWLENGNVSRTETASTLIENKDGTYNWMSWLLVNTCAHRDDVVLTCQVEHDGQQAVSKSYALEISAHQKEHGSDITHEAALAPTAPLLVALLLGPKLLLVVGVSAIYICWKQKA
T1 sequence (P78324 other isoform, or with tags, fused parts or gaps limits assumed): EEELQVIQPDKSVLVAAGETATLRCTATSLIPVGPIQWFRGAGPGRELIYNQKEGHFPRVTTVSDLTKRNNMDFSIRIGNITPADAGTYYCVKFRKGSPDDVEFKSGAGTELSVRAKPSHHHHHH

B1: OSE-172 (antibody, human IgG4 S228P, kappa, V domains shown)
VH: EVQLVQSGAEVKKPGESLRISCKASGYSFTSYWVHWVRQMPGKGLEWMGNIDPSDSDTHYSPSFQGHVTLSVDKSISTAYLQLSSLKASDTAMYYCVRGGTGTLAYFAYWGQGTLVTVSS
VL: DVVMTQSPLSLPVTLGQPASISCRSSQSLVHSYGNTYLYWFQQRPGQSPRLLIYRVSNRFSGVPDRFSGSGSGTDFTLKISRVEAEDVGVYYCFQGTHVPYTFGGGTKVEIKR
notes: IgG4Pro heavy chain
The molecule B1 had a dissociation constant Kd in assay [1] of 11.7 nM. The half-maximal effective concentration (EC50 (read off the curve)) in assay [2] is about 0.04 µg/mL. The IC50 in assay [3] was 2.32 µg/mL.

B2: cF44 (IgG1) (antibody, V domains shown)
VH: EVQLVESGGGLVQPGRSLKLSCAASGFTFSNYYMAWVRQAPTKGLEWVTYITTGGGSTYFRDSVKGRFTISRDNAESTLYLQMDSLRSEDTATYYCTAANYGGSYFDYWGQGVMVTVSS
VL: DVQMTQSPSNLAASPGESVSINCKASKSISKYLAWYQQKPGKANKLLIYSGSTLQSGTPSRFSGSGSGTDFTLTIRNLEPEDFGLYYCQQHNEYPPTFGAGTKLELK
notes: Human IgG1 constant region; also called cF44 IgG1 type
Consider B2, for which the “EC50 (read off the curve)” value in assay [4] and in assay [7] was about 0.04 µg/mL each time. Also, the “IC50 (read off the curve)” value in assay [5] and in assay [6] was about 0.4 µg/mL in each case.

B3: cF44 (IgG4p) (antibody, V domains shown)
VH: B2 VH
VL: B2 VL
notes: Human IgG4p (PRO mutation) constant region; also called cF44 IgG4p type
Turning to B3, the “EC50 (read off the curve)” value in assay [4] and in assay [7] was about 0.05 µg/mL in each case. Besides, the “IC50 (read off the curve)” value in assay [5] is about 0.5 µg/mL; in assay [6], about 0.4 µg/mL.

B4: cF44 (IgG2) (antibody, V domains shown)
VH: B2 VH
VL: B2 VL
notes: Human IgG2 constant region; also called cF44 IgG2 type
Regarding B4, the half-maximal effective concentration (EC50 (read off the curve)) in assay [4] and in assay [7] was about 0.04 µg/mL throughout. The “IC50 (read off the curve)” value was about 0.4 µg/mL in assay [5] and about 0.3 µg/mL in assay [6].
